Experimental data published in patent US20100081624A1, “SELECTIVE PEPTIDES THAT INHIBIT THE BIOLOGICAL ACTIVITY OF CALCINEURIN” (Consejo Superior de Investigaciones Cientficas, priority 2005, published 2010).
One block for each substance: values may come before it. No end group written: not given here.

Legend:
CN (Calcineurin) = biological target: T1, CN (Calcineurin) (UniProt P48452+P63098); assay: Pull-down of CN by GST-peptide fusion proteins (FIG. 3); format: binding; settings: Western blot
T1 construct: purchased Sigma
Experimental: (§1) The GST fusion proteins were expressed in the protease-deficient strain of E. coli BL2(DE3). They were purified using the glutathione (GSH)-Sepharose B beads reagent (Amersham Biosciences). The binding of CN to these GST fusion proteins was used to carry out pull-down tests, which were performed as explained below. A variable amount of the beads which contained the GST fusion proteins fused to the regulatory NFAT domains (1-2 μg) or to the peptides (10-30 μg). These were washed twice with the binding buffer (20 mM Tris pH 8, 100 mM NaCl, 1.5 mM CaCl2, 6 mM MgCl2, 1 mM PMSF, 1 μm DTT, 1 μg/ml of aprotinine, 1 μg/ml of pepstatin, 100 μM of benzamidine and 0.2% of Triton X-100) and were subsequently incubated during 30 min. in a rotary shaker at 4° C. with a solution of 20 nM of Calcineurin (Sigma) plus 600 nM of Calmodulin (Sigma) in a binding buffer with or without the corresponding peptide. Subsequently, the samples were centrifuged briefly at 4° C. Laemmli buffer was added to the supernatants (unbound fraction), which were set aside for later analysis. […] The Calcineurin was detected by Western blot using an anti-CnA monoclonal mouse antibody (clone G182-1847, PharMingen). Where indicated, the amount of CN bound to the GST fusion proteins was quantified by densitometry using the Quantity One program (BIO-RAD).

[1] = test system: NFATc2 dephosphorylation in HeLa cells; assay: NFATc2 dephosphorylation in transfected HeLa cells (Western blot); format: cell-based; settings: HeLa co-transfected with HA-NFATc2; PMA + calcium ionophore 1 hour, FIG. 8A
Experimental: The HeLa cells were cultivated in Dulbecco medium modified by Eagle (DMEM) (Gibco) completed with 10% bovine foetal serum (FBS) (Sigma). The day prior to transfection, the cells were seeded in 6-well plates in order to reach an 80% confluence at the moment of transfection. The cells were transfected with 18 ng of pEF-BOS HA-NFATc2 plus 1.1 μg of the GFP-peptide plasmids with 4 μl of Plus reagent plus 6 μl of Lipofectamine reagent (Invitrogen) for 3 hours in 1 ml of OPTIMEM medium (Gibco). By means of flow cytometry, the transfection efficiency and the percentage of cells which expressed GFP were quantified. Similar transfection efficiencies were obtained for the different constructs and in independent experiments.
Twenty-four hours after the transfection, the HeLa culture medium was replaced by DMEM+1% FBS. After a further two hours, the cells were stimulated during 1 hour using 20 ng/ml of PMA (phorbol 12 myristrate 13 acetate) (Sigma) plus 1 μM of calcium ionophore A23187 (Sigma) and 3 mM of CaCl2. […] After three washes with PBS-T and one additional wash with H2O, the antibody bound to the membranes was detected by means of the ECL system (Amersham Biosciences).

[2] = test system: nuclear translocation of NFATc2 in HeLa cells; assay: Subcellular localisation of NFATc2 in transfected HeLa cells (immunofluorescence); format: cell-based; settings: HeLa co-transfected with HA-NFATc2; calcium ionophore 30 min, FIG. 8B
Experimental: The HeLa cells were transfected as described in the previous section using 1.2 μg of the GFP-peptide expression plasmids with 40 ng of pEF-BOS HA-NFATc2. Two hours before the stimulation, the culture medium was replaced with DMEM+1% FBS. After stimulating during 30 min. with calcium ionophore A23187 (1 μm) and CaCl2 (3 mM), the cells were fixed at ambient temperature during 10 min. with a 10% solution of formaldehyde in PBS containing 4% saccharose. Subsequently, they were washed three times with PBS and were permeabilised at ambient temperature during 10 min. with a solution of PBS with 0.25% of Triton X-100. The cells were subsequently incubated during 20 min. with a blocking buffer (10% BSA in PBS) and subsequently with a 1:500 solution of the 12CA5 antibody (anti-HA) during one hour. The subcellular localisation of the NFATS was detected using a fluorescence microscope (Axiovert-200, Zeiss) using a mouse anti-IgG conjugated with the Alexa 594 fluorochrome (Molecular Probes) as a secondary antibody. The percentage of cells with nuclear or cytosolic distribution of NFAT was calculated using not less than 130 positive cells per transfection.

[3] = biological target: T2, CN-NFATc2 interaction (GST-NFATc2) (Homo sapiens, UniProt P63098+Q08209); assay: In vitro competition of CN binding to GST-NFATc2 by synthetic peptides
T2 construct: purchased Sigma
Experimental: The GST fusion proteins were expressed in the protease-deficient strain of E. coli BL2(DE3). They were purified using the glutathione (GSH)-Sepharose B beads reagent (Amersham Biosciences). The binding of CN to these GST fusion proteins was used to carry out pull-down tests, which were performed as explained below. A variable amount of the beads which contained the GST fusion proteins fused to the regulatory NFAT domains (1-2 μg) or to the peptides (10-30 μg). These were washed twice with the binding buffer (20 mM Tris pH 8, 100 mM NaCl, 1.5 mM CaCl2, 6 mM MgCl2, 1 mM PMSF, 1 μm DTT, 1 μg/ml of aprotinine, 1 μg/ml of pepstatin, 100 μM of benzamidine and 0.2% of Triton X-100) and were subsequently incubated during 30 min. in a rotary shaker at 4° C. with a solution of 20 nM of Calcineurin (Sigma) plus 600 nM of Calmodulin (Sigma) in a binding buffer with or without the corresponding peptide. Subsequently, the samples were centrifuged briefly at 4° C. Laemmli buffer was added to the supernatants (unbound fraction), which were set aside for later analysis. The beads were washed five times with cold, recently prepared binding buffer and Laemmli buffer was added; the samples were boiled to separate the bound proteins (bound fraction). The bound and unbound fractions were loaded onto 10% SDS-polyacrylamide gels and were separated by electrophoresis under reducing conditions. The Calcineurin was detected by Western blot using an anti-CnA monoclonal mouse antibody (clone G182-1847, PharMingen). Where indicated, the amount of CN bound to the GST fusion proteins was quantified by densitometry using the Quantity One program (BIO-RAD).

[4] = biological target: T3, GST-LxVPc1-CN interaction (Homo sapiens, UniProt P63098+Q08209); assay: Cross-competition of GST-LxVPc1-CN interaction (FIG. 7); format: binding; settings: free competitor peptide, VIVIT 12 μM
T3 construct: purchased Sigma
Experimental: as §1

[5] = biological target: T4, CN (Calcineurin) phosphatase activity on RII phosphopeptide (Homo sapiens, UniProt P63098+Q08209); assay: Phosphatase activity assay of CN on RII substrate; format: biochemical; settings: in vitro, FIG. 9
T4 construct: purchased Biomol
Experimental: The effect of the peptides mentioned (Example 7, FIG. 9) on the enzymatic activity of CN on the RII peptide was analysed using the “Biomol Green Calcineurin” assay kit by Biomol in accordance with the manufacturer's instructions. The combination of CsA (Sandoz) plus cyclophilin (CyP) (Sigma) was used to inhibit Calcineurin activity in vitro.

human CN = biological target: T5, human CN (Homo sapiens, UniProt P63098+Q08209); assay: Phosphatase activity assay of CN on pNPP; format: biochemical; settings: pNPP substrate; 0.01 mM
T5 construct: made in house; host or cells: bacteria
Experimental: Phosphatase Activity Assay of CN on pNPP (Paranitrophenylphosphate).
The quantity of the product of the enzymatic reaction at basic pH (paranitrophenolate=PNP) was measured by absorbance at 405 nm, converting this numerical value to a concentration by means of interpolation from a straight-line PNP pattern.

[6] = biological target: T6, CN-NFATc1 interaction (GST-NFATc1) (Homo sapiens, UniProt P63098+Q08209); assay: In vitro competition of CN binding to GST-NFATc1 by synthetic peptides
T6 construct: purchased Sigma
Experimental: as §1

[7] = summary of LxVP and PxIxIT peptides

T5 sequence (P63098 whole entry, other chains not shown): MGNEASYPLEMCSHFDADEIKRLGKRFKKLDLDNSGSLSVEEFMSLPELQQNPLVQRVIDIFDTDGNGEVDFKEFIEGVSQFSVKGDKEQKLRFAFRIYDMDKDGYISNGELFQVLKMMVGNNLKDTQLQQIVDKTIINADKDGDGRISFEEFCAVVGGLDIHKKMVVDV

Substance: GFP-LxVPc1: GFP fusion protein with the LxVP peptide of NFATc1, expressed in HeLa cells
effect on induced NFATc2 dephosphorylation [1]: blocked induced NFATc2 dephosphorylation | cells with cytosolic NFATc2 staining [2]: 77%

Substance: GFP-LxVPc2: GFP fusion protein with the LxVP peptide of NFATc2 (SILLVPPTWPKPLVP; also: GFP fusion protein)
effect on induced NFATc2 dephosphorylation [1]: had no effect

Substance: PxIxITc1: PxIxIT peptide corresponding to NFATc1 (ALESPRIEITSCLGL)
competition of CN binding to GST-NFATc2 ([3]; 100 μM peptide, FIG. 4B): efficiently blocked the interaction of CN with NFATc2

The next lines start with results.

amount of CN bound to GST-peptide fusion protein (CN (Calcineurin)): incapable of binding CN
Substance: GST-LxVPc2: GST protein fused with the LxVP motif of NFATc2 (SILLVPPTWPKPLVP; also: fused to GST protein)

competition of GST-NFATc2 binding to CN ([3]; 50 μM peptide, dose-dependent competition, FIG. 5): only a partial inhibiting effect | competition of binding of CN to GST-LxVPc1 [4]: competed the binding of CN to GST-LxVPc1
Substance: PxIxITc2: PxIxIT peptide corresponding to NFATc2 (SGLSPRIEITPSHEL)
competition of CN binding to GST-NFATc2 ([3]; 100 μM peptide, FIG. 4B): efficiently blocked the interaction of CN with NFATc2 | effect on phosphatase activity of CN on RII peptide [5]: failed in the inhibition of phosphatase activity

% CN activity (human CN): 103.3 ± 7.1%
Substance: CypA: cyclophilin A, immunophilin, used separately as negative control

competition of CN binding to GST-NFATc2 ([3]; 100 μM peptide, FIG. 4B): incapable of affecting the binding | competition of CN binding to GST-NFATc2 ([3]; concentrations as high as 300 μM, FIG. 4B): partial inhibition | competition of in vitro interaction of CN with NFATc2, overall [3, 7]: did not efficiently compete | competition of in vitro interaction of CN with NFATc1, overall [6, 7]: did not efficiently compete
Substance: LxVPc2: NFATc2-specific LxVP peptide (SILLVPPTWPKPLVP)
competition of CN binding to GST-NFATc2 ([3]; competitor peptides at 32 μM or 200 μM, FIG. 4A): incapable of competing the binding of NFATc2 to CN | competition of GST-NFATc1 interaction with CN ([6]; 32 μM peptide, FIG. 6A): not capable of altering the NFAT-CN binding
